Assay results taken from paper PMC7156110, “The MAPK substrate MASS proteins regulate stomatal development in Arabidopsis” (PLoS Genetics, 2020).

Molecular target: T1, MBP-YDA (recombinant YODA) (Arabidopsis thaliana, UniProt Q9CAD5 1-883)
T1 construct: MAPKK kinase YODA (YDA, AT1G63700), Arabidopsis thaliana; also called MBP-tagged YDA; source: E. coli BL21 (DE3), purified (Amylose Resin)
T1 sequence (looked up): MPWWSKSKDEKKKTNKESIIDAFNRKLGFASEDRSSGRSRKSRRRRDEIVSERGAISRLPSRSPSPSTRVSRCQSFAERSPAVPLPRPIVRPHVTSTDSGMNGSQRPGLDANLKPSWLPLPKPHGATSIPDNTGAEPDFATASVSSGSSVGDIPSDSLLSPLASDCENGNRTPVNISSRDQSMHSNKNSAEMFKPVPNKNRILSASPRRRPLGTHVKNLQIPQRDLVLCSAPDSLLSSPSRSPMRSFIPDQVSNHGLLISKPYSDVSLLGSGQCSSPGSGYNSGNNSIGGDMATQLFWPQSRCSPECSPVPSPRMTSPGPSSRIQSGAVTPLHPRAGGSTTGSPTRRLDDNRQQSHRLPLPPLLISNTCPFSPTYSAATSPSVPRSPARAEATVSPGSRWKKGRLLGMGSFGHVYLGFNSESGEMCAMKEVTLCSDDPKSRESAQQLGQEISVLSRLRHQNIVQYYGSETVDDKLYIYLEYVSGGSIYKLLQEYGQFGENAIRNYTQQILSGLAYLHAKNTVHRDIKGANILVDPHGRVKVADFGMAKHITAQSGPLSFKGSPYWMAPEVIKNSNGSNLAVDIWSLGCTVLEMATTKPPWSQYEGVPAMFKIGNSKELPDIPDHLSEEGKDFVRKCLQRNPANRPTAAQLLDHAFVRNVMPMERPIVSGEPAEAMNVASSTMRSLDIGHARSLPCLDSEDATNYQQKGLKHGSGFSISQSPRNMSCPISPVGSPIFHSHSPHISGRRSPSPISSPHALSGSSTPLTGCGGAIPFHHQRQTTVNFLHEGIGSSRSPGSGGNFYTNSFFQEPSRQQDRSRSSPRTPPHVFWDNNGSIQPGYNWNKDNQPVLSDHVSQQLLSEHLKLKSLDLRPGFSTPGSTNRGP
Assay: pull-down; MBP-YDA held on Amylose Resin, incubated with His-MASS2 at 4°C for 2 h; washing buffer 50 mM Tris-HCl pH 7.5, 10 mM MgCl2, 150 mM NaCl, 1 mM DTT; blots with anti-His and anti-MBP
Details: both partners purified

- binding result: binds
B1: His-MASS2.3 (MASS2 splicing variant 3, recombinant) (natural protein, Arabidopsis thaliana, UniProt Q9XI29 1-148, looked up)
chain: MEGLQRSTISFRRQGSSGIVFDDRLIAELNKSGNNEQKDESQRDEQPKPMSESSEQVKPIDEKDKLRPIKTGGGAPGGIERSRSNGGGAQRHHRTTGRVSPAVDPPSPRISSCGCCSAFGKNPPGKKVNPRKRPPKRRSRRRIVTKKR
notes: source: E. coli BL21 (DE3), purified (Ni-NTA agarose)
